Data from patent CN112759647A.

Legend:
[1] = target: 人PD-L1 on 293T-h-PDL1 cells (HEK293 stably expressing PD-L1) (human) (UniProt Q9NZQ7); assay: FACS, hybridoma supernatant on 293T-h-PDL1 cells
[2] = target: 人PD-L1胞外区与人IgG1-FC的融合蛋白 (human) (UniProt Q9NZQ7); assay: FACS blocking: supernatant premixed with 500 ng PD-L1-hFc; competitor PD-1 on 293T-h-PD1 cells
[3] = target: 人PD-L1 on 293T-h-PDL1 cells (HEK293 stably expressing PD-L1) (human) (UniProt Q9NZQ7); assay: FACS, antibody on 293T-h-PDL1 cells

Binder	EC50 [1] [µg/mL]	IC50 [2] [µg/mL]	EC50 [3] [µg/mL]
鼠抗体28B1 (antibody, from another filing, V domains shown) VH: QVQLKQSGAELVKPGASVMLSCTASAFNIDDTYIHWVKQRPEQGLEWIGRIDPANGNTDYDPECQGKATITTDMSSNTAYLQLSSLTSEDTAVYFCARGLRLPGLVYWGRGTLVTVSA VL: DIQMTQTTSSLSASLGDRVTISCRASQDISNYLNWYQQKPDGTVKLLIYYTSILYSGVPSRFSGSGSGTDYSLTINTLEEEDIATYFCQQGNTLPWTFGGGTKLEIIR	0.39	2.31	
鼠抗体22B10 (antibody, from another filing, V domains shown) VH: QVQLKQSGAELVKPGASVELSCTASGFNIEDTYLHWVNQRPEQGLEWIGRIDPANGNTYYDPKFQGKATITTDTSSNTAYLQLSRLTSEDTAVYYCARGLRLPGFPYWGQGTLVTVSA VL: DIQMTQTPSSLSASLGDRVTISCRASQDISNYLSWYQQKPDGTVKLLIYYTSILHSGVPSRFSGSGSGTDYSLAISNLDQEDIATYFCQQGNTLPWTFGGGTKLEIKR	0.517	4.31	
鼠抗体8A2 (antibody, from another filing, V domains shown) VH: QVQLKQSGPGLVAPSQSLSITCTVSGFSLTGYGVNWVRQPPGKGLEWLGKIWGDGITDYNSALKSRLSISKDNSKSQVFLKMNSLQTDDTARYYCARDVMDYWGQGTSVTVSS VL: QIVLTQSPAIMSASPGEKVTMTCSASSSISYMHWYQQKPGTSPKRWIYDTSKLASGVPARFSGSESGTSYSLTISSMEAEDAATYYCHHRSPYPTFGAGTKLELK	0.336	5.17	
鼠抗体13C9 (antibody, from another filing, V domains shown) VH: QVQLKQSGAGLVKPGASVKLSCKASGYIFTEYIIHWVKQRSGQGLEWIGWFYPGSDNIKYNEKFKDKATLTADKSSSTVYMELSRLTSEDSAVYFCARHETGYFFDYWGQGTTLTVSS VL: DIVITQSPAIMSASPGEKVTMTCSASSSVSKMNWYQQKSGTSPKRWIYDTSKLASGVPSRFSGSGSGTSYSLTISSMEAEDAATYYCQQWSSNPLTFGSGTKLELKR	0.44	1.95	0.49
鼠抗体15G10 (antibody, from another filing, V domains shown) VH: QVQLKQSGPELVKPGASVKTSCKASGYTFTNYVVHWVKQNPGQGLEWIGYVNPNNDGTIFNEKFKDKAILTSDKSSSTAYMELSSLTSEDSAVYYCARSPFAHWGQGTLVTVSA VL: QIVLTQSPASLTVSLGQRATISCSASESVDFYGTSLMQWFQQKPGQPPKLLVYTASNVDSEVPARFSGSGSGTDFSLNIHPVEEDDIAMYFCHQTRKVPYTFGGGTKLEIK	1.45	4	
